In the test the target is T1, full length form of human PSGL-1 (human, UniProt Q14242 42-412).
T1 construct: whole, on cells; Expressed whole in COS cells and precipitated from the cell lysate with the biotinylated anti-PSGL-1 antibody 2G3; also called P-selectin glycoprotein ligand; CD162
T1 sequence (looked up): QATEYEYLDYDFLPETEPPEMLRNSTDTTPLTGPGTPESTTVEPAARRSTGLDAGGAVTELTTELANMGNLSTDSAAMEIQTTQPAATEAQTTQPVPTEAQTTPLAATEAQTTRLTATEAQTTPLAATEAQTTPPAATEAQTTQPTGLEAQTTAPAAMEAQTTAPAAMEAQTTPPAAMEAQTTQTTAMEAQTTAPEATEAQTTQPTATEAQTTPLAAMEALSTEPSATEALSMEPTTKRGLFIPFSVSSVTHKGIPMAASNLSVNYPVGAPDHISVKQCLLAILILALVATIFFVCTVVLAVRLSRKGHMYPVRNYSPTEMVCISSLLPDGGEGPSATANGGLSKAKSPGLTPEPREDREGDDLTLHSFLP
Nature of the test: co-immunoprecipitation from COS cell lysates with anti-PSGL-1 antibody 2G3, anti-T7 Western blot. Here is the method:
COS cells were transfected with T7-tagged forms of SLIC-1 as described in Example 3. Vector pMT-PL85A (Genetics Institute) was included in a subset of samples to transiently overexpress the full length form of human PSGL-1. Cell lysis was carried out as described above in 900 μL/dish of lysis buffer consisting of 20 mM Tris-HCl, pH 7.4, 137 mM NaCl, 0.05% Triton-X and protease inhibitors (Hildt, E and Oess, S J 1999 J. Exp. Med. 189(11): 1707-1714). A small volume of cleared cell lysate was used for Western Blotting to detect overexpressed protein in the whole cell lysate and for spectrophotometric measurement of the protein content. A volume of 300 μL of each lysate was used for co-immunoprecipitation studies with either 2.5 μg of biotinylated monoclonal mouse anti-PSGL-1 antibody (antibody 2G3, Genetics Institute) or a biotinylated control antibody (SIGMA). The samples were agitated at 4° C. for 5 hours, and immuncomplexes were precipitated with streptavidin agarose beads (Pierce) under the same conditions for 1 hour. […] The presence of T7-tagged SLIC-1 protein in the samples was detected by Western blot analysis using an anti-T7 Horse Radish Peroxidase LumiBlot Kit (Novagen) according to the manufacturer's instructions.
(In general: A western blot detects proteins with antibodies after separation by electrophoresis.)

B1: T7-tagged truncated SLIC-1 protein comprising amino acid residues 1-160 (other)
chain: MASMTGGQQMGMASPEHPGSPGCMGPITQCTARTQQEAPATGPDLPHPGPDGHLDTHSGLSSNSSMTTRELQQYWQNQKCRWKHVKLLFEIASARIEERKVSKFVVYQIIVIQTGSFDNNKAVLERRYSDFAKLQKALLKTFREEIEDVEFPRKHLTGNFAEEMICERRRA
notes: Made with a linker; also called T7SLIC-1AA160; encoded by pED.T7U5AA160
Consider B1, for which the binding result is on record as “no binding”.

B2: T7-tagged truncated SLIC-1 protein comprising amino acid residues 1-88 (other)
chain: MASMTGGQQMGMASPEHPGSPGCMGPITQCTARTQQEAPATGPDLPHPGPDGHLDTHSGLSSNSSMTTRELQQYWQNQKCRWKHVKLLFEIASARIEER
notes: also called T7SLIC-1AA88; encoded by PED.T7U5AA88
With B2, the binding result is reported as “no binding”.
